Assay results reported in paper PMC12212125, “Constitutively active Arabidopsis cryptochrome two alleles identified using yeast selection and deep mutational scanning” (The Journal of Biological Chemistry, 2025).

B1: Arabidopsis thaliana cryptochrome 2 (CRY2, UniProt Q96524), residues 1-535 fused after the Gal4 DNA-binding domain (Gal4BD-CRY2(535)); mutagenized window 321-412, Q96524 (parent)
chain: MKMDKKTIVWFRRDLRIEDNPALAAAAHEGSVFPVFIWCPEEEGQFYPGRASRWWMKQSLAHLSQSLKALGSDLTLIKTHNTISAILDCIRVTGATKVVFNHLYDPVSLVRDHTVKEKLVERGISVQSYNGDLLYEPWEIYCEKGKPFTSFNSYWKKCLDMSIESVMLPPPWRLMPITAAAEAIWACSIEELGLENEAEKPSNALLTRAWSPGWSNADKLLNEFIEKQLIDYAKNSKKVVGNSTSLLSPYLHFGEISVRHVFQCARMKQIIWARDKNSEGEESADLFLRGIGLREYSRYICFNFPFTHEQSLLSHLRFFPWDADVDKFKAWRQGRTGYPLVDAGMRELWATGWMHNRIRVIVSSFAVKFLLLPWKWGMKYFWDTLLDADLECDILGWQYISGSIPDGHELDRLDNPALQGAKYDPEGEYIRQWLPELARLPTEWIHHPWDAPLTVLKASGVELGTNYAKPIVDIDTARELLAKAISRTREAQIMIGAAPDEIVADSFEALGANTIKEPGLCPSVSSNDQQVPSAV

Variants of: B1
Assay: yeast two-hybrid growth selection (MaV203; Gal4BD-CRY2(1-535) library x Gal4AD-CIB1; URA3 reporter on SC -Trp/-Leu/-Ura) in the dark, deep sequencing before and after selection, Enrich2 scoring; three independent screens (one at 48 h, two …)
Conditions: with CIB1 (CRYPTOCHROME-INTERACTING BASIC-HELIX-LOOP-HELIX 1), dark (no blue light), screens 1, 3 and 4, Svar > 0 = enriched under dark selection for CRY2-CIB1 two-hybrid growth (URA3 reporter), < 0 = depleted, relative to wild type (whose scores are 0). 'The Enrich2 software calculates, parent: 0, not an affinity, scale: Enrich2 score, numbering: uniprot, sequence starts at 1

| Variant | enrichment |
| --- | --- |
| R359G | -0.386 |
| R359S | -0.603 |
| R359I | -0.665 |
| R357S | 2.1 |
| R357I | -0.511 |
| R357G | 2.16 |
| R357K | 0.845 |
| G344V | -1.21 |
| G344E | -0.724 |
| G344R | -0.722 |
| L348I | -0.199 |
| L348F | 2.98 |
| L348R | -1.14 |
| L348H | -1.52 |
| L348P | -1.54 |
| G352R | -0.844 |
| G352E | -0.327 |
| G352A | -1.47 |
| I361F | -0.00476 |
| I361N | -1.11 |
| I361M | -0.375 |
| I361L | 0.823 |
| I361V | -0.287 |
| I361S | -0.712 |

| Variant | enrichment |
| --- | --- |
| I361T | -0.646 |
| V341E | -1.64 |
| V341M | -0.679 |
| V341L | -1.04 |
| V341G | -1.65 |
| V341A | -1.68 |
| K375S | 0.796 |
| K375Q | 0.228 |
| K375R | -0.0254 |
| K375I | 0.307 |
| K375E | 2.2 |
| T351A | -1.04 |
| T351P | -0.191 |
| T351N | -0.315 |
| T351S | -0.0139 |
| V367L | 1.55 |
| V367A | -0.78 |
| V367E | -0.759 |
| V367M | 1.21 |
| V367G | -0.377 |
| E347D | -0.854 |
| E347K | -1.6 |
| E347G | -1.39 |
| E347A | 0.457 |

| Variant | enrichment |
| --- | --- |
| E347V | -1.41 |
| L340F | -1.05 |
| L340W | -1.48 |
| L340S | -1.47 |
| L340M | 0.444 |
| L340V | -0.561 |
| I358K | -1.34 |
| I358V | 0.345 |
| I358T | -0.414 |
| I358L | 0.903 |
| I358R | -0.0561 |
| I358M | 0.739 |
| M354V | 0.0609 |
| M354R | -1.57 |
| M354K | -1.63 |
| M354T | 0.533 |
| M354L | 0.399 |
| M354I | 0.689 |
| V362I | 0.151 |
| V362D | -1.36 |
| V362G | -1.16 |
| V362A | -0.304 |
| P339T | -0.66 |
| P339Q | -1.15 |

| Variant | enrichment |
| --- | --- |
| L370H | -0.964 |
| L370P | -1.4 |
| L370I | -0.966 |
| L370R | 0.499 |
| W353L | -0.339 |
| W353S | -0.64 |
| W353C | -0.321 |
| W353R | -1.15 |
| W353G | -0.0561 |
| D342E | -1.69 |
| D342G | -1.84 |
| D342N | -0.898 |
| D342Y | -1.02 |
| D342A | -0.75 |
| D342V | -1.71 |
| L372F | 0.987 |
| L372H | -1.45 |
| L372I | -0.44 |
| L372R | 0.499 |
| L372P | -1.5 |
| P373Q | -0.644 |
| P373T | 0.0155 |
| P373L | -0.618 |
| P373S | -0.52 |

| Variant | enrichment |
| --- | --- |
| W374C | 1.8 |
| W374L | 1.65 |
| W374R | 1.5 |
| W374G | 0.75 |
| H355D | -1.37 |
| H355P | 0.249 |
| H355Q | -0.322 |
| H355Y | -0.714 |
| H355L | -0.0587 |
| H355R | 0.547 |
| A366P | -1.03 |
| A366T | 1 |
| A366D | -0.566 |
| A366V | 2.13 |
| F369S | -0.00513 |
| F369C | 0.578 |
| F369I | -0.158 |
| F369T | -2.07 |
| F369V | 1.03 |
| F369L | 0.468 |
| L371P | -1.4 |
| L371V | 1.25 |
| L371F | 3.11 |
| L371I | -0.7 |

| Variant | enrichment |
| --- | --- |
| L371H | 2.16 |
| L371S | 1.98 |
| L371R | 1.98 |
| M345L | -0.395 |
| M345I | -0.745 |
| M345V | -1.49 |
| M345R | -1.12 |
| M345K | -1.43 |
| M345T | -1.83 |
| K368S | 1.76 |
| K368Q | 2.29 |
| K368D | 3.06 |
| K368V | 1.84 |
| K368N | 2.25 |
| K368M | 2.28 |
| K368R | 0.246 |
| K368E | 2.88 |
| K368T | 2.52 |
| W349G | 0.303 |
| W349S | 0.756 |
| W349C | 0.242 |
| W349R | 0.599 |
| N356T | 0.0153 |
| N356D | 2.44 |

| Variant | enrichment |
| --- | --- |
| N356S | 0.0584 |
| N356H | 0.0591 |
| N356I | -0.473 |
| N356K | -0.299 |
| N356Y | 0.824 |
| A350G | 0.232 |
| A350T | -0.108 |
| A350V | -0.0426 |
| A350D | -0.775 |
| A350P | -1.4 |
| A350S | 0.303 |
| A343G | -0.899 |
| A343T | -0.823 |
| A343D | -0.747 |
| A343P | -2.1 |
| V360L | 0.412 |
| V360E | 0.367 |
| V360G | -1.05 |
| V360A | 0.0306 |
| R346G | -1.54 |
| R346I | -1.1 |
| R346K | 0.452 |
| R346S | -1.36 |
